In assay [1] the target is HLA-A*0201 (human). Description: inhibition of 125I-labelled probe peptide binding to purified HLA, gel filtration.
Assay [2] deals with HLA-A*0202 (human). The description is as above.
Assay [3] has as its target HLA-A*0203 (human). Described as above.
The target of assay [4] is HLA-A*0206 (human). The description is as above.
Assay [5] deals with HLA-A*6802 (human). The description is as above.
The target in assay [6] is HLA-A*0301 (human). Put plainly: competition with 125I-labeled standard peptide for purified HLA-A*0301, gel filtration.
Assay [7] has as its target HLA-A*0201 (human). Put plainly: competitive inhibition of 125I-labelled standard peptide binding to purified HLA, gel filtration; ratio = IC50 standard / IC50 test peptide. The following applies: remark: other sources report otherwise.
Assay [8] concerns the target HLA-A*0203 (human). The assay is described as above. The conditions noted are these: remark: other sources report otherwise.
Assay [9] has as its target HLA-A*0206 (human). Put plainly: competition with 125I standard peptide for purified HLA; gel filtration.
Assay [10] deals with HLA-A*0201 (human). Description: inhibition of 125I-labelled probe peptide binding to purified HLA; gel filtration.
In assay [11] the target is HLA-A*0202 (human). The assay is described as above.
The target of assay [12] is HLA-A*0206 (human). Described as above.
The target of assay [13] is HLA-A*0201 (human). Put plainly: competition with 125I standard peptide for purified HLA; gel filtration.
The target in assay [14] is HLA-A*0202 (human). Described as above.
The target in assay [15] is HLA-A*0203 (human). Described as above.
In assay [16] the target is HLA-A*0201 (human). Put plainly: competitive inhibition of 125I-labelled standard peptide binding to purified HLA, gel filtration.
Assay [17] concerns the target HLA-A*0202 (human). Described as above.
For assay [18], the target named is HLA-A*0203 (human). The description is as above.
The target in assay [19] is HLA-A*0206 (human). The assay is described as above.
The target of assay [20] is HLA-A*0203 (human). Put plainly: inhibition of 125I-labelled probe peptide binding to purified HLA; gel filtration.
The target in assay [21] is HLA-A*0301 (human). Description: competition with radiolabeled standard peptide on purified HLA-A*0301, gel filtration. The following applies: scale: ratio.
Assay [22] concerns the target HLA-A*6802 (human). Put plainly: inhibition of 125I-labelled probe peptide binding to purified HLA; gel filtration.
Assay [23] deals with HLA-A*0201 (human). Put plainly: competition with 125I-labeled probe peptide for purified HLA, gel filtration.
Assay [24] addresses HLA-A*0202 (human). Described as above.
For assay [25], the target named is HLA-A*6802 (human). Described as above.
Assay [26] addresses HLA-A*0201 (human). Description: competitive inhibition of 125I-labelled standard peptide binding to purified HLA.
Assay [27] deals with HLA-A*0202 (human). The assay is described as above.
The target of assay [28] is HLA-A*0203 (human). The assay is described as above.
The target of assay [29] is HLA-A*0206 (human). The description is as above.
Assay [30] concerns the target HLA-A*0201 (human). Put plainly: competition with 125I-labelled standard peptide 941.01 for purified HLA-A*0201, gel filtration.
The target in assay [31] is HLA-A*0202 (human). Put plainly: competition with 125I-labelled standard peptide 941.01 for purified HLA-A*0202, gel filtration.
For assay [32], the target named is HLA-A*0206 (human). Description: competition with 125I-labelled standard peptide 941.01 for purified HLA-A*0206, gel filtration.
For assay [33], the target named is HLA-A*0206 (human). Put plainly: competition with 125I-labeled probe peptide for purified HLA, gel filtration. The following applies: remark: other sources report otherwise.
Setting [34] is: remark: other sources report otherwise.

Read-outs that look alike come from different tables or passages of the source.

SLQCVSLHLV (modifications not checked) [Peptide 1418.52 (HuK2.170.V10) …]: the IC50 in assay [1] was 13 nM; in assay [2] it was 6.3 nM; in assay [3] it was 2.8 nM; in assay [4] it was 5.2 nM; in assay [5], 205 nM.

With LVFRHGDR (modifications not checked) [LVFRHGDR (PAP, position 40, 8 amino acids)], the binding affinity ratio (IC50 of standard peptide / IC50 of test peptide) in [6] was 0.0003.

Turning to VLSIALSV (modifications not checked) [VLSIALSV (Kallikrein, position 5)], the binding affinity ratio in [7] was 0.005; in [8], 0.02.

For FMLCAGLWV (modifications not checked) [Peptide 1418.22 … (HuK2.195.V9)], in assay [9] (setting [34]), the IC50 is 51 nM.

As for MSLLKNRFLR (modifications not checked) [… (PSA, position 99, 10 amino acids)], the binding affinity ratio (IC50 of standard peptide / IC50 of test peptide) in [6] was determined as 0.007.

As for SLHLLSNDMCV (modifications not checked) [Peptide 1418.66 (HuK2.175.V11) …], the IC50 in assay [1] (setting [34]) is 8.6 nM; in assay [2] (setting [34]), 0.8 nM; in assay [3] (setting [34]), 10 nM; in assay [4] (setting [34]) it was 2310 nM; in [5] (setting [34]), 2160 nM.

On to PLLLWQPIPV (modifications not checked) [peptide 63.0042 (PAP.134.L2)], for which the figures for the half-maximal inhibitory concentration (IC50) in assay [10] (setting [34]), in [11] (setting [34]) and in [12] (setting [34]) were 238 nM, 47 nM and 336 nM, respectively.

SLSLGFLFLV (modifications not checked) [Peptide 1419.52 … (PAP.13.V10)]: the half-maximal inhibitory concentration (IC50) is 1.8 nM in [13], 3.9 nM in assay [14], 17 nM in assay [15] and 42 nM in [9].

Take ITSWGSEPCAL (modifications not checked): the binding affinity ratio (ratio to standard peptide) in assay [16] (setting [34]) worked out at 0.001; in [17] (setting [34]) it was 0.012; in assay [18] (setting [34]), 0.0096; in assay [19] (setting [34]) it was 0.0001.

Consider ALFPPEGVSI (modifications not checked) [peptide 1419.6 (PAP.122)], for which the IC50 in assay [10] (setting [34]) was determined as 278 nM; in assay [20] (setting [34]), 133 nM; in assay [12] (setting [34]), 2640 nM.

Turning to VLPFDCRDYA (modifications not checked) [PSM 592 peptide …], in assay [21], the binding affinity ratio came out at 0.0005.

Regarding KLRELSELSV (modifications not checked) [peptide 63.0048 (PAP.234.V10)], the IC50 in assay [10] (setting [34]) was determined as 263 nM; in assay [22] (setting [34]), 1820 nM.

As for NFTEIASKF (modifications not checked) [… (PSM, position 638, 9 amino acids)], in [6], the binding affinity ratio (IC50 of standard peptide / IC50 of test peptide) was 0.0005.

As to HLLSNDMCARV (modifications not checked) [Peptide 1418.67 (HuK2.177.V11) …], the IC50 in assay [2] (setting [34]) was 1.3 nM; in assay [3] (setting [34]), 5.3 nM; in assay [4] (setting [34]), 37 nM; in assay [5] (setting [34]), 860 nM.

On to VLTAAHCIR (modifications not checked) [PSA 56 peptide …], for which the binding affinity ratio in assay [21] is 0.0002.

Take VTKFMLCAGR (modifications not checked) [PSA 188 peptide …]: the binding affinity ratio in [21] (setting [34]) worked out at 0.0003.

Take ITSWGPEPCA (modifications not checked) [… (Kallikrein, position 226)]: the binding affinity ratio (ratio to standard peptide) in [16] (setting [34]) worked out at 0.0003; in [17] (setting [34]), 0.01; in [19] (setting [34]), 0.0005.

As to NLLHETDSA (modifications not checked) [… (PSM, position 3, 9 amino acids)], in [6], the binding affinity ratio (IC50 of standard peptide / IC50 of test peptide) came out at 0.0006.

Consider LTFFWLDRSV (modifications not checked) [Peptide 1418.23 … (PAP.21.T2)], for which the IC50 amounted to 9.6 nM in [15] and 43 nM in [9].

As for LMYSLVHNL (modifications not checked) [Peptide 1126.14 … (PSM.469)], the results for the concentration for half-maximal inhibition (IC50) in [23], in assay [24] and in [25] were 64 nM, 0.4 nM and 320 nM, respectively.

Consider FLTLSVTWIGV (modifications not checked) [Peptide 63.0186, … (PSA.3.V11)], for which the IC50 was 6.8 nM in [26], 3 nM in assay [27], 18 nM in assay [28] and 65 nM in [29].

With GVSIWNPILV (modifications not checked) [peptide 63.0041 (PAP.128.V10)], the IC50 in [10] (setting [34]) was 250 nM; in [11] (setting [34]), 94 nM; in assay [12] (setting [34]), 451 nM; in assay [22] (setting [34]), 2290 nM.

Consider TVSGLQMAV (modifications not checked) [peptide 60.0213 (PAP.292.V9)], for which the IC50 in assay [10] worked out at 294 nM; in assay [11] it was 12 nM; in [20], 122 nM; in assay [12] it was 195 nM; in assay [22] it was 5.7 nM.

Take ITDVVKVL (modifications not checked) [ITDVVKVL (Kallikrein, position 132)]: the binding affinity ratio (ratio to standard peptide) in assay [16] was 0.0001; in assay [17], 0.001; in [18], 0.0001; in assay [19], -0.0001.

In the case of SIALSVGCT (modifications not checked) [… (Kallikrein, position 7)], the binding affinity ratio (IC50 of standard peptide / IC50 of test peptide) in assay [30] is -0.0001; in assay [31] it was 0.0006; in [32], 0.0006.

In [28] (setting [34]), MLLRLSEPAEV (modifications not checked) [Peptide 1389.12, … (PSA.118.V11)] yielded an IC50 of 115 nM.

With WATEDTMTK (modifications not checked) [PAP 226 peptide …], in assay [21], the binding affinity ratio came to 0.0006.

In the case of GTPEGDLVYV (modifications not checked) [Peptide 1418.29 … (PSM.168.T2)], the 50% inhibitory concentration (IC50) is 313 nM in assay [23] (setting [34]), 40 nM in assay [33] and 571 nM in [25] (setting [34]).

As to LLWQPIPVHV (modifications not checked) [peptide 1419.69 (PAP.136.V10)], the IC50 worked out at 25 nM in [10], 1.8 nM in assay [11], 17 nM in assay [20] and 60 nM in assay [22].

Consider ITSWGSEPCA (modifications not checked), for which the binding affinity ratio (ratio to standard peptide) in assay [16] is 0.0003; in assay [17], 0.0036; in assay [18], 0.003; in [19], 0.0001.

(Values after patent US20070020327A1.)
